Data on one molecule can be found in patent US20080213817A1 (published 2008).

This assay concerns the target T1, mitogen-activated protein kinase/ERK kinase kinase 1 (MEKK1) (mouse, UniProt P53349 2-1493).
T1 construct: Endogenous protein co-immunoprecipitated from mouse thymocyte / T cell lysates, not a recombinant construct; also called MEK kinase 1; MAPK/ERK kinase kinase 1
T1 sequence (looked up): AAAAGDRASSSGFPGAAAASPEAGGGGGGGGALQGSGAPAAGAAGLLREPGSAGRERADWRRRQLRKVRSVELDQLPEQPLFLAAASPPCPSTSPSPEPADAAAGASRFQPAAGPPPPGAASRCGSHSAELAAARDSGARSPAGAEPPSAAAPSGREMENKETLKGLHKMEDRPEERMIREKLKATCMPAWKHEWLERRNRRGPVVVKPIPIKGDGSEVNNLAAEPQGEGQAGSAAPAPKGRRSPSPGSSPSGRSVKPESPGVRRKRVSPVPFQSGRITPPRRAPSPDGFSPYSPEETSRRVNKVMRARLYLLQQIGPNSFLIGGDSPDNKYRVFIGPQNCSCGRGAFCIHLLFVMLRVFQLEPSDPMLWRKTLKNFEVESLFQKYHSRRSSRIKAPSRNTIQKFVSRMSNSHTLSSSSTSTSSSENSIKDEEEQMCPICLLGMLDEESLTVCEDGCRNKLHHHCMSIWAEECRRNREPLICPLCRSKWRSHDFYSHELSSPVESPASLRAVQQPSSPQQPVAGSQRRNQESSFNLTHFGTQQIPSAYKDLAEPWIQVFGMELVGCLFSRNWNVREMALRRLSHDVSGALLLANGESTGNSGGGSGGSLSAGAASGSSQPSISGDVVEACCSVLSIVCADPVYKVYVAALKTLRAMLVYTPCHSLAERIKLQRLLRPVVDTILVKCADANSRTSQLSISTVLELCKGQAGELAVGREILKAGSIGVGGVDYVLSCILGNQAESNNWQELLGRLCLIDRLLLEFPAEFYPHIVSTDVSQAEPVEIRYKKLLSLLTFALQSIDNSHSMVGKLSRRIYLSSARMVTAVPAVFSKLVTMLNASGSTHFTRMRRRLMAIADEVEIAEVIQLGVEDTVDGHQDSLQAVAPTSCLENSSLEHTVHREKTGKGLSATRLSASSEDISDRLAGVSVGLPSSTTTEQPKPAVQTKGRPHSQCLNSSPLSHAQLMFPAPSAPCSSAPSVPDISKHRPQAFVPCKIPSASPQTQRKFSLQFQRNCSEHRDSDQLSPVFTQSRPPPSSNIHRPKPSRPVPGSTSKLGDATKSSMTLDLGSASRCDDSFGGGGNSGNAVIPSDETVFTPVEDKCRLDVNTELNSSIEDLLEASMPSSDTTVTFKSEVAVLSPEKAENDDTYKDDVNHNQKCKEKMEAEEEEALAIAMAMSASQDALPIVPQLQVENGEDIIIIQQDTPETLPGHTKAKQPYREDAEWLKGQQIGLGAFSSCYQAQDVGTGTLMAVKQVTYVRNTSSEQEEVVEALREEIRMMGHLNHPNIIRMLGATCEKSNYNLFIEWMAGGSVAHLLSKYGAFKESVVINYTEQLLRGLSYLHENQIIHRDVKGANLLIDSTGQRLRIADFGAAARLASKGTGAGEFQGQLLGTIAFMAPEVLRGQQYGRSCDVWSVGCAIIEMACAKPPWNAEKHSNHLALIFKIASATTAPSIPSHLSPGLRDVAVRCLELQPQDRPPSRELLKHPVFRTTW
The assay is described as follows: co-immunoprecipitation (summary of the results).

B1: E3 ubiquitin ligase Itch (enzyme)
chain: not shown
notes: Endogenous protein from mouse thymocytes / T cells; also called Itchy E3 ubiquitin protein ligase; AIP4
With B1, the binding result was “binds”.
